Experimental data taken from the supplement of paper PMC11316812.
± gives the standard deviation of the averaged measurements.

How the values were obtained:
MCF7 = assay: percentage of EdU-negative (G0-arrested) nuclei per well, 72 h; higher = more G0 arrest; conditions: reference: sequence is the full UniProt precursor, the tested protein was the secreted form or ectodomain
hTERT-HMEC = assay: as above; conditions: reference: sequence is the full UniProt precursor, the tested protein was the secreted form or ectodomain
[1] = protein concentration 0.02588 µM
[2] = protein concentration 0.2588 µM
[3] = protein concentration 0.0225 µM
[4] = protein concentration 0.0166175 µM
[5] = protein concentration 0.166175 µM
[6] = protein concentration 0.02823 µM
[7] = protein concentration 0.2823 µM
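Further: secreted proteins added to cultured cells, EdU pulse at the end, nuclei found by Hoechst imaging, EdU status from nuclear versus surrounding ring intensity ratio, PBS as neutral control.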

Sequence	percentage of EdU-negative (MCF7; [3])	percentage of EdU-negative (MCF7; protein concentration 0.225 µM)	percentage of EdU-negative (hTERT-HMEC; [3])	percentage of EdU-negative (hTERT-HMEC; protein concentration 0.225 µM)	further results
MEPPGDWGPPPWRSTPKTDVLRLVLYLTFLGAPCYAPALPSCKEDEYPVGSECCPKCSPGYRVKEACGELTGTVCEPCPPGTYIAHLNGLSKCLQCQMCDPAMGLRASRNCSRTENAVCGCSPGHFCIVQDGDHCAACRAYATSSPGQRVQKGGTESQDTLCQNCPPGTFSPNGTLEECQHQTKCSWLVTKAGAGTSSSHWVWWFLSGSLVIVIVCSTVGLIICVKRRKPRGDVVKVIVSVQRKRQEAEGEATVIEALQAPPDVTTVAVEETIPSFTGRSPNH [F6Q0M4]	–	–	–	–	percentage of EdU-negative (MCF7; [1]): 25.05 ± 0.09%; percentage of EdU-negative (MCF7; [2]): 27.5 ± 1.3%; percentage of EdU-negative (hTERT-HMEC; [1]): 5.28 ± 1.9%; percentage of EdU-negative (hTERT-HMEC; [2]): 6.34 ± 0.056%
MEPQLGPEAAALRPGWLALLLWVSALSCSFSLPASSLSSLVPQVRTSYNFGRTFLGLDKCNACIGTSICKKFFKEEIRSDNWLASHLGLPPDSLLSYPANYSDDSKIWRPVEIFRLVSKYQNEISDRRICASASAPKTCSIERVLRKTERFQKWLQAKRLTPDLVQGLASPLLRCPSQRLLDRVVRRYAEVADAGSIFMDHFTDRDKLRLLYTLAVNSHPILLQIFPGAEGWPLPKYLGSCGRFLVSTSTRPLQEFYDAPPDQAADLAYQLLGVLESLRSNDLNYFFYFTHIDAGMFGVFNNGHLFIRDASAVGVIDKQEGSQEANRAGENKDIFSCLVSGCQAQLPSCESISEKQSLVLVCQKLLPRLLQGRFPSPVQDDIDSILVQCGDSIRPDPEVLGAASQLKDILRPLRTCDSRFAYRYPDCKYNDKF [Q9H7Y0]	25.8 ± 2.1%	25.3 ± 2%	5.59 ± 0.064%	5.31 ± 0.38%	–
MEQWDHFHNQQEDTDSCSESVKFDARSMTALLPPNPKNSPSLQEKLKSFKAALIALYLLVFAVLIPLIGIVAAQLLKWETKNCSVSSTNANDITQSLTGKGNDSEEEMRFQEVFMEHMSNMEKRIQHILDMEANLMDTEHFQNFSMTTDQRFNDILLQLSTLFSSVQGHGNAIDEISKSLISLNTTLLDLQLNIENLNGKIQENTFKQQEEISKLEERVYNVSAEIMAMKEEQVHLEQEIKGEVKVLNNITNDLRLKDWEHSQTLRNITLIQGPPGPPGEKGDRGPTGESGPRGFPGPIGPPGLKGDRGAIGFPGSRGLPGYAGRPGNSGPKGQKGEKGSGNTLTPFTKVRLVGGSGPHEGRVEILHSGQWGTICDDRWEVRVGQVVCRSLGYPGVQAVHKAAHFGQGTGPIWLNEVFCFGRESSIEECKIRQWGTRACSHSEDAGVTCTL	27.3 ± 1.6%	25.4 ± 1.7%	5.16 ± 0.032%	5.23 ± 1.7%	–
MERAAPSRRVPLPLLLLGGLALLAAGVDADVLLEACCADGHRMATHQKDCSLPYATESKECRMVQEQCCHSQLEELHCATGISLANEQDRCATPHGDNASLEATFVKRCCHCCLLGRAAQAQGQSCEYSLMVGYQCGQVFQACCVKSQETGDLDVGGLQETDKIIEVEEEQEDPYLNDRCRGGGPCKQQCRDTGDEVVCSCFVGYQLLSDGVSCEDVNECITGSHSCRLGESCINTVGSFRCQRDSSCGTGYELTEDNSCKDIDECESGIHNCLPDFICQNTLGSFRCRPKLQCKSGFIQDALGNCIDINECLSISAPCPIGHTCINTEGSYTCQKNVPNCGRGYHLNEEGTRCVDVDECAPPAEPCGKGHRCVNSPGSFRCECKTGYYFDGISRMCVDVNECQRYPGRLCGHKCENTLGSYLCSCSVGFRLSVDGRSCEDINECSSSPCSQECANVYGSYQCYCRRGYQLSDVDGVTCEDIDECALPTGGHICSYRCINIPGSFQCSCPSSGYRLAPNGRNCQDIDECVTGIHNCSINETCFNIQGGFRCLAFECPENYRRSAATLQQEKTDTVRCIKSCRPNDVTCVFDPVHTISHTVISLPTFREFTRPEEIIFLRAITPPHPASQANIIFDITEGNLRDSFDIIKRYMDGMTVGVVRQVRPIVGPFHAVLKLEMNYVVGGVVSHRNVVNVHIFVSEYWF	–	–	–	–	percentage of EdU-negative (MCF7; [4]): 27.1 ± 0.61%; percentage of EdU-negative (MCF7; [5]): 26.7 ± 1.6%; percentage of EdU-negative (hTERT-HMEC; [4]): 3.95 ± 0.058%; percentage of EdU-negative (hTERT-HMEC; [5]): 5.63 ± 0.19%
MERASCLLLLLLPLVHVSATTPEPCELDDEDFRCVCNFSEPQPDWSEAFQCVSAVEVEIHAGGLNLEPFLKRVDADADPRQYADTVKALRVRRLTVGAAQVPAQLLVGALRVLAYSRLKELTLEDLKITGTMPPLPLEATGLALSSLRLRNVSWATGRSWLAELQQWLKPGLKVLSIAQAHSPAFSCEQVRAFPALTSLDLSDNPGLGERGLMAALCPHKFPAIQNLALRNTGMETPTGVCAALAAAGVQPHSLDLSHNSLRATVNPSAPRCMWSSALNSLNLSFAGLEQVPKGLPAKLRVLDLSCNRLNRAPQPDELPEVDNLTLDGNPFLVPGTALPHEGSMNSGVVPACARSTLSVGVSGTLVLLQGARGFA	–	–	–	–	percentage of EdU-negative (MCF7; [6]): 26.8 ± 1.2%; percentage of EdU-negative (MCF7; [7]): 27.2 ± 0.7%; percentage of EdU-negative (hTERT-HMEC; [6]): 4.9 ± 0.54%; percentage of EdU-negative (hTERT-HMEC; [7]): 8.12 ± 1.2%
MERASLIQKAKLAEQAERYEDMAAFMKGAVEKGEELSCEERNLLSVAYKNVVGGQRAAWRVLSSIEQKSNEEGSEEKGPEVREYREKVETELQGVCDTVLGLLDSHLIKEAGDAESRVFYLKMKGDYYRYLAEVATGDDKKRIIDSARSAYQEAMDISKKEMPPTNPIRLGLALNFSVFHYEIANSPEEAISLAKTTFDEAMADLHTLSEDSYKDSTLIMQLLRDNLTLWTADNAGEEGGEAPQEPQS	25.3 ± 4.8%	20.9 ± 1.9%	4.93 ± 0.53%	5.22 ± 0.073%	–
